Laboratory results reported in paper PMC8764538.

Test system: T1, LuxT-6xHis (Vibrio harveyi BB120 (ATCC BAA-1116; reclassified Vibrio campbellii BB120)?), ORF:7f3e8717
T1 sequence: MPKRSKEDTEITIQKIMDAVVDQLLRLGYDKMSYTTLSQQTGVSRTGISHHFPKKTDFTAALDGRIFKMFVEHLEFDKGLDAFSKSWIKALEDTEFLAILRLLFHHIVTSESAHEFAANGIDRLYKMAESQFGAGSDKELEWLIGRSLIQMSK
Assay: EMSA
Conditions: EMSA: 20 nM DNA probe, LuxT-6xHis dimer 20-320 nM (1x-16x); buffer, salt, pH and temperature not given (described in cited ref 18)

Sequence: AATCATCAGTTCAATAAAAAAGAGGGCTTCAGCCCTCTTTTTTTATATATTTAATCTTGCCCTCATAATCAGTACGCTGTATTATCAATTACAACCGAACTACGTACTGTTTA (double strand) [PswrZ promoter probe]
- binding: binds

Sequence: GTTTGATCTGCTTAATAAATCTGGTTAAAAGTTATTAATTAACTTTAAAAAAATAACCCAAGATACTAGTGTTTTTTCAAATTCAAAGGAGAAGCTCTTGATATGGA (double strand) [PluxC control probe]
- binding: no binding

Sequence: TGGCATATTTTAAGCTCTTCTCTTTGTAAATCCATCTAACTCACATTTAAATGAGGCCAGAATGAAATCATCCTCAGCATTATGTATTGTATGTCCTTG (double strand) [PluxT promoter probe]
- binding: binds
